Test results published in patent US20240360203A1 (GENERATE BIOMEDICINES, published 2024).
Like-named read-outs stand apart in the source and are kept apart here.

Experiments:
Assay in all cases: cell-based or functional assay
[1] = target: T1, SARS-CoV-2 BA.2.12.1 Spike on pseudovirus (SARS-CoV-2, UniProt P0DTC2 14-1273)
[2] = target: T2, SARS-CoV-2 BA.4/5 Spike on pseudovirus (SARS-CoV-2, UniProt P0DTC2 14-1273)
[3] = target: T3, SARS-CoV-2 Delta Spike on pseudovirus (SARS-CoV-2, UniProt P0DTC2 14-1273)
[4] = target: T4, SARS-CoV-2 BA.2 Spike on pseudovirus (SARS-CoV-2, UniProt P0DTC2 14-1273)
[5] = target: T5, SARS-CoV-2 BA.1 Spike on pseudovirus (SARS-CoV-2, UniProt P0DTC2 14-1273)
[6] = target: T1, SARS-CoV-2 BA.2.12.1 Spike on …; remark: listed apart in the source
[7] = target: T2, SARS-CoV-2 BA.4/5 Spike on pseudovirus; remark: listed apart in the source
[8] = target: T3, SARS-CoV-2 Delta Spike on pseudovirus; remark: listed apart in the source
[9] = target: T4, SARS-CoV-2 BA.2 Spike on pseudovirus; remark: listed apart in the source
[10] = target: T5, SARS-CoV-2 BA.1 Spike on pseudovirus; remark: listed apart in the source
[11] = target: T2, SARS-CoV-2 BA.4/5 Spike on pseudovirus; remark: listed apart in the source
[12] = target: T2, SARS-CoV-2 BA.4/5 Spike on pseudovirus; remark: listed apart in the source
[13] = target: T3, SARS-CoV-2 Delta Spike on pseudovirus; remark: listed apart in the source
[14] = target: T4, SARS-CoV-2 BA.2 Spike on pseudovirus; remark: listed apart in the source
[15] = target: T1, SARS-CoV-2 BA.2.12.1 Spike on …; remark: listed apart in the source

Row | Binder | IC50, pseudovirus neutralization [1] | IC50, pseudovirus neutralization [2] | IC50, pseudovirus neutralization [3] | IC50, pseudovirus neutralization [4] | IC50, pseudovirus neutralization [5] | % neutralization at 4.5 µg/ml, pseudovirus [6] | % neutralization at 4.5 µg/ml, pseudovirus [7] | % neutralization at 4.5 µg/ml, pseudovirus [8] | % neutralization at 4.5 µg/ml, pseudovirus [9] | % neutralization at 4.5 µg/ml, pseudovirus [10] | IC50, pseudovirus neutralization [11] | IC50, pseudovirus neutralization [12] | IC50, pseudovirus neutralization [13] | IC50, pseudovirus neutralization [14] | IC50, pseudovirus neutralization [15]
1 | AB-1 (antibody, V domains shown) VH: EVQLVESGAEVKKPGESLKISCKGSGYTFTRYWIGWVRQMPGKGLEWMGIIYPGDSDVRYSPSFQGHVTISADKSISTAYLQWNSLKASDTAMYYCARLPQYCSKGVCYRWFDPWGQGTLVTVSS VL: EIVLTQSPSSVSASVGDRVTITCRASQGISSWLAWYQQKPGKAPKLLIYAASSLQSGVPSRFSGSGSGTDFTLTISSLQPEDFATYYCQQGHSFPYTFGQGTNLEIK | 0.0133 µg/mL | 0.0278 µg/mL | 0.0139 µg/mL | 0.0219 µg/mL | 0.0088 µg/mL | 89.2% | 90.4% | 99.5% | 89.9% | 96.5% | 0.0101 µg/mL | 0.075 µg/mL | 0.034 µg/mL | 0.031 µg/mL | 
2 | Reference Antibody (antibody, V domains shown) VH: EVQLVESGAEVKKPGESLKISCKGSGYTFTRYWIGWVRQMPGKGLEWMGIIYPGDSDTRYSPSFQGHVTISADKSISTAYLQWNSLKASDTAMYYCARLPQYCSNGVCQRWFDPWGQGTLVTVSS VL: EIVLTQSPSSVSASVGDRVTITCRASQGISSWLAWYQQKPGKAPKLLIYAASSLQSGVPSRFSGSGSGTDFTLTISSLQPEDFATYYCQQGNSFPYTFGQGTNLEIK | 0.0307 µg/mL | 0.0314 µg/mL | 0.0681 µg/mL | 0.0941 µg/mL | 0.0261 µg/mL |  | 74.4% | 93.9% | 74.5% | 91.9% |  | 0.634 µg/mL | 0.256 µg/mL | 1.25 µg/mL | 0.337 µg/mL
